Test results reported in patent publication US20250387465A1.

Legend:
[1] = molecular target: ferritin-PreF fusion protein RSV-PreF-C-NP (respiratory syncytial virus (Pre-F part); species of the ferritin not stated); assay: ELISA, fusion protein coated, F protein antibody 1:1500 as primary; protein kept 1 h at pH 10, 25 C; against untreated protein; mean of 10- to 10000-fold dilutions
[2] = molecular target: ferritin-PreF fusion protein RSV-PreF-E-NP (respiratory syncytial virus (Pre-F part); species of the ferritin not stated); assay: ELISA with F protein antibody after 1 h at pH 3.8, pH 10, 50 C or 70 C
[3] = molecular target: ferritin-PreF fusion protein RSV-PreF-A-NP (respiratory syncytial virus (Pre-F part); species of the ferritin not stated); assay: as above
[4] = molecular target: ferritin-PreF fusion protein RSV-PreF-C-NP (respiratory syncytial virus (Pre-F part); species of the ferritin not stated); assay: as above
[5] = molecular target: ferritin-PreF fusion protein RSV-PreF-H-NP (respiratory syncytial virus (Pre-F part); species of the ferritin not stated); assay: as above
[6] = molecular target: ferritin-PreF fusion protein RSV-PreF-G-NP (respiratory syncytial virus (Pre-F part); species of the ferritin not stated); assay: as above
[7] = molecular target: ferritin-PreF fusion protein RSV-PreF-F-NP (respiratory syncytial virus (Pre-F part); species of the ferritin not stated); assay: as above
[8] = molecular target: ferritin-PreF fusion protein RSV-PreF-B-NP (respiratory syncytial virus (Pre-F part); species of the ferritin not stated); assay: as above
[9] = molecular target: ferritin-PreF fusion protein RSV-PreF-D-NP (respiratory syncytial virus (Pre-F part); species of the ferritin not stated); assay: as above
[10] = molecular target: ferritin-PreF fusion protein RSV-PreF-C-NP (respiratory syncytial virus (Pre-F part); species of the ferritin not stated); assay: ELISA, fusion protein coated, F protein antibody 1:1500 as primary; protein kept 1 h at 50 C, pH 7.4; against untreated protein; mean of 10- to 10000-fold dilutions
[11] = molecular target: ferritin-PreF fusion protein RSV-PreF-C-NP (respiratory syncytial virus (Pre-F part); species of the ferritin not stated); assay: ELISA, fusion protein coated, F protein antibody 1:1500 as primary; protein kept 1 h at pH 7.4, 25 C (untreated reference); mean of 10- to 10000-fold dilutions
[12] = molecular target: ferritin-PreF fusion protein RSV-PreF-C-NP (respiratory syncytial virus (Pre-F part); species of the ferritin not stated); assay: ELISA, fusion protein coated, F protein antibody 1:1500 as primary; protein kept 1 h at pH 3.8, 25 C; against untreated protein; mean of 10- to 10000-fold dilutions
[13] = molecular target: ferritin-PreF fusion protein RSV-PreF-C-NP (respiratory syncytial virus (Pre-F part); species of the ferritin not stated); assay: ELISA, fusion protein coated, F protein antibody 1:1500 as primary; protein kept 1 h at 70 C, pH 7.4; against untreated protein; mean of 10- to 10000-fold dilutions

“F protein antibody (PujianBiotech (Wuhan), Cat #62814)” was tested, and the Percentage of ELISA Signal Intensity Retained After Physical Stress Challenges [1] was 83.6%, the antigen-binding activity retained against the original untreated protein [2] was > 75% and the antigen-binding activity retained against the original untreated protein [3] was > 75%. The antigen-binding activity retained against the original untreated protein [4] was > 75%, the antigen-binding activity retained against the original untreated protein [5] was > 75% and the antigen-binding activity retained against the original untreated protein [6] was > 75%. For the same substance, the antigen-binding activity retained against the original untreated protein [7] was > 75%, the antigen-binding activity retained against the original untreated protein [8] was > 75% and the antigen-binding activity retained against the original untreated protein [9] was > 75%. For the same substance, the Percentage of ELISA Signal Intensity Retained After Physical Stress Challenges [10] was 91.2%, the Percentage of ELISA Signal Intensity Retained After Physical Stress Challenges [11] was 100% and the Percentage of ELISA Signal Intensity Retained After Physical Stress Challenges [12] was 77.3%. The Percentage of ELISA Signal Intensity Retained After Physical Stress Challenges [13] was 77.1%.
